Experimental data as given in PMC10003956, “To the Understanding of Catalysis by D-Amino Acid Transaminases: A Case Study of the Enzyme from Aminobacterium colombiense” (Molecules, 2023).

Tests used:
purified protein [1] = substrate: N[C@H](CCC(=O)O)C(=O)O; test: purified protein; format: biochemical, Aminobacterium colombiense; conditions: 500 mM pyruvate, 60 µM PLP, 50 mM K-phosphate, pH 8.0, 60 °C
purified protein [2] = substrate: O=C(O)CCC(=O)C(=O)O; test: purified protein; format: biochemical, Aminobacterium colombiense; conditions: 500 mM D-alanine, 60 µM PLP, 50 mM CHES, pH 9.0, 60 °C

B1: AmicoTA (Aminobacterium colombiense DSM 12261) (protein)
chain: MNLCYIDGKFLPLEEAKLPVTDLIIQRGVGVFETISTHSRRPLMLTPHLKRLEGSATASSIVMPATLDEMARIIREGIKKMGCETMVRPYITGGDSFGKDHLFSSSRYFVIFEEIRKPDPILYEKGVALHPINAERYLPSTKSINYMLSFTGQRDSKGAYEILYCPEGEIVEGSHSTFFLIKNGHLITAPTSRALSGTTRQIVLELARRGNIQVEERCPLLTELPEAEEAFITGTVKELLPVVRIGDQIIGNGVPGKLTKHLHQVYLSSIVEWLE
notes: N-terminal His6-TEV tag kept for kinetics, cut for crystals; E. coli Rosetta (DE3) pLysS
Km (purified protein [1]): 5.2 ± 0.6 mM
kcat (purified protein [1]): 1.4 ± 0.06 s⁻¹
kcat/Km (purified protein [1]): 270 ± 40 M⁻¹ s⁻¹
Km (purified protein [2]): 7.2 ± 0.8 mM
kcat (purified protein [2]): 9.9 ± 1.3 s⁻¹
kcat/Km (purified protein [2]): 1380 ± 330 M⁻¹ s⁻¹
